Entries after “also recorded” stand apart in the source; their conditions may differ.
T1: SWEET1 (Arabidopsis thaliana, UniProt Q8L9J7)
T1 sequence (Q8L9J7 1-247): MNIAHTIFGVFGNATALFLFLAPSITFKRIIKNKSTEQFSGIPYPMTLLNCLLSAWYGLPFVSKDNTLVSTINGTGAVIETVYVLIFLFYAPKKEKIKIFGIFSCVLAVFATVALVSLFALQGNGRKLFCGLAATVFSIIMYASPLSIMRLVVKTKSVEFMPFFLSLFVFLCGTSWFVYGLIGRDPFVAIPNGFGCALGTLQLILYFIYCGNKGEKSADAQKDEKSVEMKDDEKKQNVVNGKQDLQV

T2: SGLT1 (Homo sapiens, UniProt P13866)
T2 construct: The ORF of SGLT1 (Invitrogen, Carlsbad, Calif.) was amplified by PCR and cloned into pCR2.1-TOPO; host or cells: Xenopus laevis oocytes injected with cRNA from pOO2
T2 sequence (P13866 1-664): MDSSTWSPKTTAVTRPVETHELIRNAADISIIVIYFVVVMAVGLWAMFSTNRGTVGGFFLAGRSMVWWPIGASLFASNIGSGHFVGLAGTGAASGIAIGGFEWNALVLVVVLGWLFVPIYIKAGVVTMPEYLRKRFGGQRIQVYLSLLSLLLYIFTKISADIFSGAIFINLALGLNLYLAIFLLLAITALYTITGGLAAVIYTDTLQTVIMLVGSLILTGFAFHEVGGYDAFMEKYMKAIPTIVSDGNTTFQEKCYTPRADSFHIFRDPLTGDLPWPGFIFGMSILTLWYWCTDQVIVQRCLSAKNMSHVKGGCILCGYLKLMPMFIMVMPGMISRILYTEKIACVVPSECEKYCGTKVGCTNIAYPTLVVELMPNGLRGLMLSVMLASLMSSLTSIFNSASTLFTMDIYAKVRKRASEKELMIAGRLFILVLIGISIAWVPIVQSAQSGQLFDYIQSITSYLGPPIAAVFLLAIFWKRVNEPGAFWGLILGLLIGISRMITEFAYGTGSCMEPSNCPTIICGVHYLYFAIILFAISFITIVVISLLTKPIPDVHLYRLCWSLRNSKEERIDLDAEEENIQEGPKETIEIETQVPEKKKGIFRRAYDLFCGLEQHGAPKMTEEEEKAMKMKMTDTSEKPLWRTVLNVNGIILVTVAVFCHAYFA


Assays:
SWEET1 [1] = target: T1, SWEET1; experiment: FRET glucose sensor FLIPglu600μΔ13V co-transfected with SWEET1 in HEK293T cells, cytochalasin B; format: cell-based; design: SWEET1, SWEET8 and OsSWEET11 ORFs were amplified by RT-PCR using specific primers from Arabidopsis and rice, respectively; expressed in transfected cells; host or cells: HEK293T; conditions: 20 μM cytochalasin B
Method: Similar results were obtained for several Arabidopsis paralogs of this gene family.
FRET analysis. Cell culture, transfection, image acquisition and FRET analysis were performed as described previously.
To identify novel glucose transporters from the reference plant Arabidopsis, genes encoding uncharacterized polytopic membrane proteins from the plant membrane protein database Aramemnon, available on the internet at “aramemnon.botanik.uni-koeln.de”,—were screened using a mammalian expression system. Candidate genes were coexpressed with a high-sensitivity FRET glucose sensor (i.e. FLIPglu600μΔ13V) in human embryonic kidney HEK293T cells, which are characterized by low endogenous glucose uptake activity. […] To determine whether SWEET1 can also mediate efflux from the cytosol, we expressed the FRET glucose sensor FLIPglu600μΔ13V^ER in the lumen of the endoplasmic reticulum (ER; FIG. 9B). Topologically, uptake across the plasma membrane (PM) is initiated from the extracellular side of the carrier, while ‘export’ to the ER is initiated from the cytoplasmic side of the transporter (FIG. 9C). […] SWEET1 may thus function as a glucose uniporter, for which the direction of transport depends only on the glucose gradient across the membrane. […]

SWEET1 [2] = target: T1, SWEET1; experiment: Inhibition of SWEET1-mediated glucose uptake in yeast EBY4000 by competing sugars; format: cell-based; design: SWEET1, SWEET8 and OsSWEET11 ORFs were amplified by RT-PCR using specific primers from Arabidopsis and rice, respectively; conditions: 5 mM D-glucose; competitor at 10-fold excess (50 mM)
Method: Competitors were added at 10-fold excess (final concentration 50 mM). Relative activity was normalized to D-glucose uptake rate [100%]. Data are mean±S.D.
Yeast uptake. Yeast cells were grown in SD medium supplemented 2% maltose and auxotrophic markers. Cells were harvested at OD600 0.5-0.7 by centrifugation, and washed twice in ice-cold distilled water. Cell pellets were weighed after the supernatant had been removed. Cells were resuspended 5-10% (w/v) in 40 mM potassium phosphate buffer, pH 6.0. Cells were pre-incubated in potassium phosphate buffer for 5 min at 30° C. For each reaction, 330 μl pre-warmed buffer containing 20 mM glucose (0.55 μCi D-[U-^14C] glucose; 590 KBq/μmol, Amersham Pharmacia Biotech Inc.) was added to an equal volume of cells. 120 μl aliquot were withdrawn and transferred to the ice-cold water. Cells were harvested by vacuum filtration onto a glassfiber filters (GF/C, Whatman), and washed twice in 10 ml ice-cold water. Filters were transferred to scintillation vials containing 5 ml of Ultima Gold XR Scintillator liquid (Perkin Elmer). Radioactivity taken up by the cells was measured by liquid scintillation spectrometry. To determine substrate specificity for SWEET1 compared to D-glucose, a ten-fold excess of competing sugar species was used. To determine the pH-dependence of SWEET1 activity, 40 mM potassium phosphate uptake buffer at specified pH was used. […]

Xenopus oocytes [3] = experiment: Tracer [14C]-glucose uptake in Xenopus oocytes; format: cell-based, Xenopus laevis; conditions: 1 mM D-glucose, 1 h
Method: Xenopus oocytes isolation and RNA injection. After linearization of the pOO2 plasmids with MluI, capped cRNAs were synthesized in vitro by SP6 RNA polymerase using mMESSAGE mMACHINE kit (Ambion, Inc., Austin, Tex.). Xenopus laevis oocytes were kindly provided by M. Goodman (Stanford University). Microinjection was carried out as described by Ballatori et al.. 25 ng to 50 ng of each cRNA was injected into healthy-looking oocytes (RNAse-free water was used as control). The injected oocytes were then maintained at 18° C. in modified Barth's saline (MBS: (in mM) 88 NaCl, 1 KCl, 2.4 NaHCO3, 0.82 MgSO4, 0.33 Ca(NO3)2, 0.41 CaCl2, and 20 HEPES-Tris, pH 7.5) with 100 μM gentamycin, 100 U/ml penicillin and 100 μM streptomycin solution for 2-3 d. The incubation buffer was changed once per day.
Tracer uptake in Xenopus oocytes. The assay was performed with modification as described in Detaille et al. Two days after injection, groups of 7 to 16 oocytes were transferred into tubes containing 200 μL MBS and 1 mM D-glucose (4 μCi/ml D-[^14C(U)]-glucose; 319 mCi/mmol, PerkinElmer). After incubation at 20° C. for one hour, and the cells were washed by adding 1 ml ice-cold MBS. Incubation was stopped by adding ice-cold MBS buffer. The ooctyes were washed three times in ice-cold MBS buffer. The cells were solubilized with 100 μl 1% (w/v) SDS, and measured individually. […]

Xenopus oocytes [4] = experiment: Tracer efflux assay in Xenopus oocytes injected with [14C]-glucose; format: cell-based, Xenopus laevis; conditions: S.E., n>7
Method: 50 nl of 10 mM radiolabeled glucose (0.18 μCi/μl) were injected and radiotracer efflux was measured over time. Data are mean±SE (n>10 cells).
Tracer efflux assay in Xenopus oocytes. Efflux was measured essentially as described. Three days after cRNA injection, oocytes were injected with 50 nl solution containing 10 mM D-glucose with 0.18 μCi/μl D-[^14C(U)]-glucose. Cells were immediately washed once in MBS. At defined time points, the reaction buffer (950 μl) was removed for scintillation counting and replaced with fresh medium. Finally, the oocytes were solubilized with 1% SDS and analyzed for radioactivity.
The ORF of SGLT1 (Invitrogen, Carlsbad, Calif.) was amplified by PCR and cloned into pCR2.1-TOPO (Invitrogen). The SGLT1 ORF was excised with EcoRI/XhoI and cloned into the corresponding sites in pOO2. The splice variant RAG1AP1-1 in pDNR-LIB (Clone ID: 4076256, Open Biosystems, Huntsville, Ala.) was restricted with EcoRI/XhoI and cloned into pOO2. RAG1AP1-2 in pCMV-SPORT6 (Clone ID: 3896154, Open Biosystems, Huntsville, Ala.) was transferred into the pOO2-GW (D. Loqué, unpublished) by in vitro LR recombination (Gateway). RAG1AP1-3aa was mutated to Y216A, L218A, L219A (putative internalization motifs) by site-directed mutagenesis and cloned by in vitro BP recombination in pDONR221-f1 and further mobilized into pOO2-GW by LR reaction. […]

SGLT1 = target: T2, SGLT1; experiment: Coexpression with SGLT1 in Xenopus oocytes, glucose accumulation; format: cell-based; conditions: coexpressed with SGLT1
Excerpt: Data are mean±SE, n=7. Inset indicates concentrative uptake of glucose by SGLT 1 and glucose efflux (‘leak’) caused by OsSWEET11.
All experiments were repeated independently at least 6 times. Error bars are means±SD.
Human SGLT1 sodium glucose cotransporter (“S”) which has been previously shown to be a secondary active glucose importer. SGLT1 is […] expressed in Xenopus oocytes and can mediate uptake of 14C labelled glucose into the oocyte. When RAG1AP1 (“R”) is coexpressed, less uptake is seen in the oocytes. This is compatible with a glucose ‘leak’ due to RAG1AP1 activity that prevents high accumulation of glucose in the SGLT1 expressing cells.
Tracer uptake in Xenopus oocytes. The assay was performed with modification as described in Detaille et al. Two days after injection, groups of 7 to 16 oocytes were transferred into tubes containing 200 μL MBS and 1 mM D-glucose (4 μCi/ml D-[^14C(U)]-glucose; 319 mCi/mmol, PerkinElmer). After incubation at 20° C. for one hour, and the cells were washed by adding 1 ml ice-cold MBS. Incubation was stopped by adding ice-cold MBS buffer. The ooctyes were washed three times in ice-cold MBS buffer. The cells were solubilized with 100 μl 1% (w/v) SDS, and measured individually.
The ORF of SGLT1 (Invitrogen, Carlsbad, Calif.) was amplified by PCR and cloned into pCR2.1-TOPO (Invitrogen). […]

[5] = 14C glucose uptake data for C. elegans homologs (FIG. 42); format: cell-based; conditions: 1 mM and 10 mM glucose
Excerpt: FIGS. 42A and 42B show the 14C glucose uptake data for five of the C. elegans homologs.
At least 3, 4 nd 5 are active. (code for names of C elegans genes:Ce1: C06G8.1; Ce2: K06A4.4; Ce3: Y39A1A.8; Ce4: K11D12.5; Ce5: K02D7.5; (worm mutants of Ce5: K02D7.5 show increased fat accumulation, consistent with reduced efflux of glucose from these cells).

Molecule	[14C]-glucose uptake into Xenopus oocytes (Xenopus oocytes [3])	effect of coexpression on SGLT1-mediated glucose accumulation in oocytes (SGLT1)	also measured
C=C1[C@@H](C)[C@H]2[C@H](Cc3ccccc3)NC(=O)[C@]23OC(=O)/C=C/[C@H](O)CCC[C@@H](C)C/C=C/[C@H]3[C@@H]1O [cytochalasin B]			effect of cytochalasin B on SWEET1 (GLUE1)-mediated glucose uptake (SWEET1 [1]): insensitive; also recorded: did not affect; also recorded: insensitivity
CO[C@@H]([C@H](O)[C@H](O)CO)[C@@H](O)C=O [3-O-methylglucose]			inhibition of SWEET1-mediated glucose uptake by competitor sugar (SWEET1 [2]): marginally inhibited
RAG1AP1: human homolog of the SWEET sugar transporters (SLC50) (protein) MEAGGFLDSLIYGACVVFTLGMFSAGLSDLRHMRMTRSVDNVQFLPFLTTEVNNLGWLSYGALKGDGILIVVNTVGAALQTLYILAYLHYCPRKRVVLLQTATLLGVLLLGYGYFWLLVPNPEARLQQLGLFCSVFTISMYLSPLADLAKVIQTKSTQCLSYPLTIATLLTSASWCLYGFRLRDPYIMVSNFPGIVTSFIRFWLFWKYPQEQDRNYWLLQT	unable to mediate glucose accumulation	less uptake; also recorded: counteract secondary active glucose accumulation; also recorded: counteracted SGLT1-mediated glucose accumulation	% glucose released within 2 min (Xenopus oocytes [4]): 5.27±0.29%
CeSWEET1: C. elegans SWEET homolog (protein, UniProt O45102 1-299, looked up) Sugar transporter SWEET1: MLEVVLQVLSISAITTTIALFFCGIPICMQIRRQGAVGDISGVPFLMGVLGGSFWLRYGLLKMDYVMIIVNVVGVACMAFYCVFFLIYSLPKKTFTCQLILVTSTIGGMVLWIALKPNLDYLGVICMTFNIMNFGAPLAGLGVVLKNREVSTLPLPMCVANFLVSSQWCLYGNLVSDIYIIIPNGIGMFLAIVQLALFVVLPIRENEKSPLEKLASWFTGRDSKVKDLERGDCIVSSPPSSPQKVPNETRSDVEDKFDKLMAETSSTIPSDSRRGSMGSPPSYKSRSSSDPDLSSIQSP	mediates glucose uptake; also recorded: weak, but significant glucose uptake	counteract secondary active glucose accumulation	14C glucose uptake activity [5]: active

From US10246721B2, “Sugar transporters” (CARNEGIE INSTITUTION OF WASHINGTON, priority 2009, dated 2019)
